Assay: soluble on expression in E. coli; label from the status in PepcDB or PDB records

Soluble on expression in E. coli, not soluble:
MGSDKIHHHHHHMTDSTTLYPVFAEELLPGGGHRSFILKRGELLRLTDLNGNANVSLTLLNAHEKTERLNLPDSLKCQHTAKLSNGHCLYSDMGRVLAAIVTDTCGWSDSIGGVLNAQEVAEKYGQGRYQELRNGFFRNGVDNLLVELGKWGLGLSDLLMTLNLFSRVDVSETGTLHFAPNNSKAGDYIELYAPMDTLVVLTALQHPMDPNPDYVPQPLTLSWMKADASVAEHCRTSRPENERGFINTDRLFA
MGSDKIHHHHHHMTEITTLSQFLTTANTQFQVYDLGRRVQHIDALAFHQIESLLAPYPYPIQGHAQLGLVFWQQSAQPYIWFLKLPLDEQGLLSPAPRSQFIQMILDALGRDLTQELTEAQQEQFANHPFSFKPNQHKLALFNALVRQQLGQPASSQYEFAAQYLSEQAVIGESSAVENESHSWEQLGLQGIADVCVRAQSLDNMDSLIRSFDFSPLPVHAALCQCLEHLPLEPSLAEKIYLLFEQASNEHKASYLAALASSPSLSIKAIAHLAQHNLLDANHLVTIAARNWQALKDDSCRKSYLEALALQEQGFFNQVFADIVAIPSLRQALLLDLRNPERSNILSIAIGGLFKAAQS
MGSDKIHHHHHHMTEITTLTQFLSTANTQFQVYDLGRRVQHIDMMAFSQIEALQAPYPSPIQGHAQFAIVFWDDSNQHFIWFLKLPLDERGLLSPAPRTQFIRMVIEALGSDPTQALSQDQQDTLANHPFAFKPSAEKLALFNALVRKQLGLPASAQYEFAYQYLSGQVSPERWQDVGLQGLADICVRAAALDHNEQLLNALEHSADEVKIALCQQLEHITLDAPLAERLLSAFYQGSPEQKLYYLRALASAPALAQQAIQYLDEQDALDDNALITIAGRNWTALKDDQTRKIYLEALAKQPQGFFNQIFADIVAIPAIRTQLLMALRDSERSQALANAIGGLFRVTKA
MGSDKIHHHHHHMTEVIRDIPFLATDRVEALLDIERHLIVEQSTIERWFRGQWQRTPPPFYASVDLRNAGFKLAPVDTNLFSAGFNNLNPEFSALYVSAIQHYLNQYHPGLERVLLIPENHTRNLFYLESVARLRELLELAGLDVRVGSLILEDRTVYDLPSGGQLLLEPLCRDDGRLSTRGFDAQLILLNNDLSGGVPEILAGLEQPILPPLAAGWRNRRKSQHFTHYRAVAQELAEVIGIDPWLIDPVFRRCQGIDFMRSEGRECLVANVDAVLEITRERYAHYGIHQRPFVIVKADAGTYGMGIMTAYSGEEFLDLNRKERTRMAKSKEGLPVSDVFIQEGVYTFEQTAQEAVAEPVVYMIGQQVLGGFYRVHTERGRDENLNAPGAHFEPMAFGQTCVLPCRKSPPDAPANRYYAYGVIARLTLVAAAREMADWRRQGTLETGQ
MGSDKIHHHHHHMTEYKKILVVINPTVDHQAALARAVELATKSNASITAFLSIYDFSYEMTSILSSHEREAMRQGVIDQRSAWLDTAIAPFNSAGVAIDSKVIWHNRPFESVINCALEGQYDLIVKSTHEHDKLKAVIFTPTDWHLMRKAPMPVLMVKEHDWPVAGKILCALNVASEDSEHQTLNGKIIEHAKDLATKFSADVHLVNGYPGTPVNLAIELPDFDAHAYNNNIRMQHQSRVECLAQAYDIPLDRCHVEEGLPEDVIPEVADRIDAELVILGTVGRTGFSAALIGNTAEHVIDSIRCDLLAIKPEGYVSPLAE
MGSDKIHHHHHHMTFEKNEHKDIAVIGAGPVGMLAALNLAHKGYSVCLIGPPVDTDELRTTALMMPAIHMLQKLNIWNIVKSHAAALSFIRIIDITSRIIRAPTVNFSSAEIGEEAFGYNIPNVELNNALVASVAHTPNIKRFFSSAHFFHHQPNHIHVTLADGGVVQASLIVAADGRDSRTREAADISVKKWNYPQTALVLNFSHDLSHQNTSTEFHTESGPFTQVPLPGHRSSLVWVVNPSRAEELLRLESKVIAKVIEEQMQSMLGKLTLETPIQAWPLSGLISQRFAANRTILVGEAAHVFPPIGAQGLNLGFRDIQTLIDILPNKISDFNSKKIVAHYNKCRKPDILIRSGSVHMFNSALLSNMLPVHIIRSFGLGLLRNCSPLRNLFTREGIYPGYGFKKIMQTFPIKSHKQESSIFFSVLVKDRDSEMISKSSLF
MGSDKIHHHHHHMTFEPYPFERLRALLKEITPKKRGLDLGIGEPQFETPKFIQDALKNHTHSLNIYPKSAFEESLRAAQRGFFKRRFKIELKENELISTLGSREVLFNFPSFVLFDYQNPTIAYPNPFYQIYEGAAKFIKAKSLLMPLTKENDFTPSLNEKELQEVDLVILNSPNNPTGRTLSLEELISWVKLALKHDFILINDECYSEIYENTPPPSLLEACMLAGNEAFKNVLVIHSLSKRSSAPGLRSGFIAGDSRLLEKYKAFRAYLGYTSANAIQKASEAAWLDDRHAEFFRNIYANNLKLARKIFKNTLIYPYSFYVYLPVQNGENFAKTLYQNEGIITLPALYLGRNRIGADYVRLALVYDTPLLEKPLEIIETYRENHA
MGSDKIHHHHHHMTHIVHKGLDFFVKPQKVSLNLNMKIGSLKVHPEDLKLLMKKVPVFMMSYYDNKAFMERELEISSADFPNGVVFFSYYEPVPAELNWDVDKKLISQLTKYFHLYDLVHSINSLIDETEGSSLHIGVYEEWLDRIMVKVPSENTEELRNMLSRFSLLYTTKILWKIFRGNFEELKKRTHEIAYKLYEVAGF
MGSDKIHHHHHHMTKEINPFIVTGKIEPEYFCDRVKESERLVKSLTNGNNLVIISPRRMGKTGLIRFCYEKPEIKEEYYTFFIDILHTSSLREFTYLLGKEIYETLLPRSKKMASLFIQTVKSINGKFGFDPLTNLPTFNLELGDIDRPEYTLEEIFQCLIAADKPCIVAIDEFQQIAKYPEKNIEALLRTHIQTIENSNFIFAGSERHMMQEMFLSSSRPFYHSADILELKAIVPEIYIPFIADHFQKRKRHIEIENIEKVYRLFKGHTFYIQKTFNEAFADTPKGKECTLEIIKTAIDNLIAYNDTIFREILSNIPEKQKELLYAIAKVGEAENVTSAKFIKRYSLTSASSVQSATKKLLEKDIITEINKVYSVTDKFFGMWINTIYGNKYTL
MGSDKIHHHHHHMTKNTVRTYIKQTWKTLTRSHQHLLESAQDTKLEHQPNTPWIIYISPQEDCNTVQSVLERSLSAKEMQQIEIRTLPSEVEAIQEHGLLYLPGAYVVPGGRFNEMYGWDSYFILLGLLQDEEWELAQSQVDQLLYQVQHYGTILNANRTYMLTRSQPPVLSMMVLALFQHTQDQAWLKSTLPLLEQFYYYWVVPPHLNSATGLSRYYALGEGAAPEVLFSELDETGRSHYERVKEYYKTFEIDDYDVSLFYDSERDELTDLFYKGDRSMRESGFDITNRFGPFSVDIVHYAPVCLNSLLYQMEQDLAQIHKILDNPELAEQWSDRATLRRERINQYLWDEEKGIYLDYHFYSGKRRHYEFATTFYPLWTGLSSPEQAQRIVENLSLFTAPGGIFTSTHVTGNQWDAPFGWAPLTLIAVQGLYRYGYRKEGDDIAHKFLTMAIQEFTKYGFFVEKYDVERCSAQVSDEICFGYSSNEIGFGWTNGVILELLANLDDS
MGSDKIHHHHHHMTKVAHLTSVHSRYDIRIFRKQCRTLSQYGYDVYLVVADGKGDEVKDGVRIVDVGVLSGRLNRILKTTRKIYEQALALGADVYHFHDPELIPVGLRLKKQGKQVIFDSHEDVPKQLLSKPYMRPFLRRVVAVLFSCYEKYACPKLDAVLTATPHIREKFKNINGNVLDINNFPMLGELDAMVPWASKKTEVCYVGGITSIRGVREVVKSLECLKSSARLNLVGKFSEPEIEKEVRALKGWNSVNEHGQLDREDVRRVLGDSVAGLVTFLPMPNHVDAQPNKMFEYMSSGIPVIASNFPLWREIVEGSNCGICVDPLSPAAIAEAIDYLVSNPCEAAALGRNGQRAVNERYNWDLEGRKLARFYSDLLSKRDSI
MGSDKIHHHHHHMTLADYVEIETTKDELIRACKQAADLIRTRVDYKYILVLLFLKKLSDEWKREYREALKTLMEKGVDEEEAKILAKDRSFHKFDYPEKYTWEELRKNVNELPVRLSEALKLLAEKNPELQGVVDRLDFLEFTRARDNFDILVQLFELFSGLNLGRASDSILGDAYEWLIGYFAPQKAKEGEVFTPSEVVELIVRIVDPKPMDSVYDPAAGYARMLIRAYDYVKEKYGEEEVRKLFLYGQEVNPTTYAIAKMNAIVHGIKDINLVVGDTLKNPRFKEGETFRKFDIVIANPPWNQDGYGEEELKKAEFYDERFRYGFTPKQSADWAWIQHMLASAKKKVGVVIDNGCLFRGGKEGAIRKAVVEDDLIECVILLPEKLFYNTGAPGAIIIFNKQKPESRKGKILFINASNEYEKHPEVRKLNRLGEKHIEKIVSAYREFKDGDGFCRVVDVEEVRKNDYNLNVTLYVFPQEEVEEIDVAKEWEELRGIEREIDEVERRIEEYLAELGFGRG
MGSDKIHHHHHHMTLKITKSDEVIEVKNLCVTIYSQPGLGKTSLAFTASRPLLLDFDKGAHRAVDRKDVVQVEDWRDVAGISAGDLAAYDTIVIDTVGKALDTLSADIIRANSKLSYGGALNQQGWGQLGVRFSAFLKLLRSFGKDVVLISHMDEKADGDAIKERLKISGGSKDLVLTDSDVIARISIYNRERHLIFSPTETSFGKDPANIGAMPIPEASAETYATCLSDIITQIKEGMNALSEEQVQRKAEIDWFATKLPEMTSAEEINGVLGRAKKAGKDIQKMVVARAKELGFDFDPEAREYVDPSAALADELDDEIPEFDDADEPESPAMAAE
MGSDKIHHHHHHMTLLRGDDFFTSRAVTVAVEPRTPQTAFPEHYHDFWEIVLVEQGAGVHVFNDQPYALCSGSVFFVRDNDRHLFEDVEGLCLTNMLYRSPRGFRFLSDIAAFLPYGPNGEWQGQWQVNAAGMQQLKQSLNSLAGLAQSDAPEAIAASESLFLQILVQLRQHCFQTEGNGSERQGVQALLGWLQNNYSEEVNWGGLADQFSLPLRTLHRQLKQHTGMTPQRYLNRLRLLEARRRLQQSDDSITTIAHACGFSDSNHFSTQFRKAFSQAPKSLRHQAFSREE
MGSDKIHHHHHHMTLMKPADVSQRQSTSVLHSSSHSPSQNHLLAALPQVELESFSDHLELVPMPLGEFLYEPGSGLEYVYFPTTCIVSLHYVLSSGATAETAGVGNEGVVGVSLFMGGNTTASSAVVQTAGYGYRLNKKILMREFDRSGLLQRVLLRYTQALMTQMSQTAVCNRHHSLEQQFCRWLLLTLDRMPTNELVMTHELVASMLGVYREGISLAAGKLQQAGVISYRRGHISVLDRAKLELKSCECYQVVKTELDRLLSDGLLADAKFIKTKTDTQTSKTQ
MGSDKIHHHHHHMTNQNYLAKTTNKQYIVKFFGKGTEKLINRQDEKYNLELLKDLGLDVKNYLFDIEAGIKVNEYIESAITLDSTSIKTKFDKITPILQTIHTSAKELRGEFAPFEEIKKYESLIEEQIPYANYESVRNAVFSLEKRLADLGVDRKSCHIDLVPENFIESPQGRLYLIDWEYSSMNDPMWDLAALFLESEFTSQEEETFLSHYESDQTPVSHEKIAIYKILQDTIWSLWTVYKEEQGEDFGDYGVNRYQRAIKGLASYGGSDEK
MGSDKIHHHHHHMTPPPDELLAVRQAVEWAITTRRSVRAFLPKPVTADTVEAILNTARFAATGVNIQPWKVHVLMGAAKDRVCAAIKQIDDDPAVAVMHADEWAYYPKEWTSPYVDRRRAVGWRLYSLLGIEKGDKARMQVQHGRNYQFFGAPVGLFFTVDRLMSEGSLLDYGMFLQNIMVVARTYGLSTCPQAAFMKYHRIIEQELGLGAHEKFVVGMSLGYADEERIENTLASEREPAASFTTFHEK

Source: the DeepSol protein solubility set
